The source of these data is article PMC11656211.

This test concerns the target TLR4/MD2 complex on HEK293-hTLR4-MD2-CD14 cells (human) (UniProt O00206).

Ends that are not written are not given here. Where only a bound is given, the exact number is not on record here.

B1: HiLyte Fluor 488-labeled GK-1 (peptide)
peptide: GYYYPSDPNTFYAPPYSA
modifications: also: HiLyte Fluor 488 label, position not given here
As to B1, the uptake of GK-1-HF488 (MFI by flow cytometry after trypsin treatment), HEK293-TLR4 cells against HEK293-null cells, 1 h at 4 °C, 5 to 50 uM worked out at 5 fold and the uptake of GK-1-HF488 (MFI by flow cytometry after trypsin treatment), HEK293-TLR4 cells against HEK293-null cells, 1 h at 37 °C, 5 to 50 uM was less than 30 fold.
